Experimental data taken from article PMC5105191.
Where two headings read alike, the source gives them in different places.

How the values were obtained:
[1] = molecular target: FITC–PHC2_(32–61) (human); test: fluorescence polarisation; 20 nM fluorescein-labelled PHC2 32-61 titrated with BMI1 UBL variants or MEL18 UBL; 50 mM bis tris pH 7.5, 50 mM NaCl, 1 mM TCEP, 0.01% BSA, 0.25% tween-20; 1 h incubation
[2] = molecular target: BMI1_(121–235), BMI1 UBL domain, wild type (UniProt P35226); test: ITC; VP-ITC, 25 °C, 50 mM phosphate pH 6.5, 50 mM NaCl, 1 mM TCEP; BMI1 121-235 in the cell (22 or 9 μM), titrated with trx-PHC2 1-79 (164 μM) or PHC2 33-56 (100 μM)
[3] = molecular target: FITC–PHC2_(32–61) (human); test: fluorescence polarisation; 20 nM fluorescein-labelled PHC2 32-61 titrated with BMI1 UBL variants or MEL18 UBL; 50 mM bis tris pH 7.5, 50 mM NaCl, 1 mM TCEP, 0.01% BSA, 0.25% tween-20; 1 h incubation; remark: listed apart in the source

Molecule: BMI1 UBL domain F189Q (from UniProt P35226 121-235) (domain or fragment)
- Kd [1]: 409 nM

Molecule: BMI1 UBL domain H174E (from UniProt P35226 121-235) (domain or fragment)
- Kd [1]: 20100 nM

Molecule: BMI1 UBL domain I212E (from UniProt P35226 121-235) (domain or fragment)
- Kd [1]: 1040 nM

Molecule: BMI1 UBL domain M170E (from UniProt P35226 121-235) (domain or fragment)
- Kd [1]: 17000 nM

Molecule: BMI1 UBL domain R165E (from UniProt P35226 121-235) (domain or fragment)
- Kd [1]: 5900 nM

Molecule: BMI1 UBL domain R165E/H174E double mutant (from UniProt P35226 121-235) (domain or fragment)
- Kd [1]: > 50000 nM

Molecule: BMI1_(121–235), BMI1 UBL domain, wild type (from UniProt P35226 121-235) (domain or fragment)
- Kd [1]: 215 nM

Molecule: PHC2_(33–56) peptide
- Kd [2]: 413 nM

Molecule: trx-PHC2_(1–79) (domain or fragment)
- Kd [2]: 398 nM
- stoichiometry N [2]: 1

B1: MEL18_(121-237) fragment, MEL18 UBL domain (domain or fragment)
chain: EKGALSDDEIVSLSIEFYEGARDRDEKKGPLENGDGDKEKTGVRFLRCPAAMTVMHLAKFLRNKMDVPSKYKVEVLYEDEPLKEYYTLMDIAYIYPWRRNGPLPLKYRVQPACKRLT
- Kd [3]: 812 nM
